Starred links: 1 amine or outer side, 2 acyl side, 3 side chain; linkers in the order of their positions; H or OH if unused. Groups on a side chain read outwards from the residue. No end group written: not given here. *: point of attachment. C18 diacid = O=C(O)CCCCCCCCCCCCCCCCC(=O)*; γGlu = O=C(O)[C@H](CCC(=O)[*:2])N[*:1]; AEEA = NCCOCCOCC(=O)O
B1: SEQ ID NO: 54 (peptide)
peptide: FTLSLDVPIKLK([AEEA-AEEA-γGlu-C18 diacid])QILLKQQKQKKERQQAETNVQLLERV-NH2
modifications: N-terminus assumed
SMILES: CC[C@H](C)[C@H](NC(=O)[C@H](CCC(N)=O)NC(=O)[C@H](CCCCNC(=O)COCCOCCNC(=O)COCCOCCNC(=O)CC[C@H](NC(=O)CCCCCCCCCCCCCCCCC(=O)O)C(=O)O)NC(=O)[C@H](CC(C)C)NC(=O)[C@H](CCCCN)NC(=O)[C@@H](NC(=O)[C@@H]1CCCN1C(=O)[C@@H](NC(=O)[C@H](CC(=O)O)NC(=O)[C@H](CC(C)C)NC(=O)[C@H](CO)NC(=O)[C@H](CC(C)C)NC(=O)[C@@H](NC(=O)[C@@H](N)Cc1ccccc1)[C@@H](C)O)C(C)C)[C@@H](C)CC)C(=O)N[C@@H](CC(C)C)C(=O)N[C@@H](CC(C)C)C(=O)N[C@@H](CCCCN)C(=O)N[C@@H](CCC(N)=O)C(=O)N[C@@H](CCC(N)=O)C(=O)N[C@@H](CCCCN)C(=O)N[C@@H](CCC(N)=O)C(=O)N[C@@H](CCCCN)C(=O)N[C@@H](CCCCN)C(=O)N[C@@H](CCC(=O)O)C(=O)N[C@@H](CCCNC(=N)N)C(=O)N[C@@H](CCC(N)=O)C(=O)N[C@@H](CCC(N)=O)C(=O)N[C@@H](C)C(=O)N[C@@H](CCC(=O)O)C(=O)N[C@H](C(=O)N[C@@H](CC(N)=O)C(=O)N[C@H](C(=O)N[C@@H](CCC(N)=O)C(=O)N[C@@H](CC(C)C)C(=O)N[C@@H](CC(C)C)C(=O)N[C@@H](CCC(=O)O)C(=O)N[C@@H](CCCNC(=N)N)C(=O)N[C@H](C(N)=O)C(C)C)C(C)C)[C@@H](C)O
B2: SEQ ID NO: 55 (peptide)
peptide: FTLSLDVPTKIK([AEEA-AEEA-γGlu-C18 diacid])QILLKQQKQKKERQKAETNVQLLERV-NH2
modifications: N-terminus assumed
SMILES: CC[C@H](C)[C@H](NC(=O)[C@H](CCC(N)=O)NC(=O)[C@H](CCCCNC(=O)COCCOCCNC(=O)COCCOCCNC(=O)CC[C@H](NC(=O)CCCCCCCCCCCCCCCCC(=O)O)C(=O)O)NC(=O)[C@@H](NC(=O)[C@H](CCCCN)NC(=O)[C@@H](NC(=O)[C@@H]1CCCN1C(=O)[C@@H](NC(=O)[C@H](CC(=O)O)NC(=O)[C@H](CC(C)C)NC(=O)[C@H](CO)NC(=O)[C@H](CC(C)C)NC(=O)[C@@H](NC(=O)[C@@H](N)Cc1ccccc1)[C@@H](C)O)C(C)C)[C@@H](C)O)[C@@H](C)CC)C(=O)N[C@@H](CC(C)C)C(=O)N[C@@H](CC(C)C)C(=O)N[C@@H](CCCCN)C(=O)N[C@@H](CCC(N)=O)C(=O)N[C@@H](CCC(N)=O)C(=O)N[C@@H](CCCCN)C(=O)N[C@@H](CCC(N)=O)C(=O)N[C@@H](CCCCN)C(=O)N[C@@H](CCCCN)C(=O)N[C@@H](CCC(=O)O)C(=O)N[C@@H](CCCNC(=N)N)C(=O)N[C@@H](CCC(N)=O)C(=O)N[C@@H](CCCCN)C(=O)N[C@@H](C)C(=O)N[C@@H](CCC(=O)O)C(=O)N[C@H](C(=O)N[C@@H](CC(N)=O)C(=O)N[C@H](C(=O)N[C@@H](CCC(N)=O)C(=O)N[C@@H](CC(C)C)C(=O)N[C@@H](CC(C)C)C(=O)N[C@@H](CCC(=O)O)C(=O)N[C@@H](CCCNC(=N)N)C(=O)N[C@H](C(N)=O)C(C)C)C(C)C)[C@@H](C)O

Biological target: human corticotropin-releasing factor 2α (CRF2 α receptor) (human), Q13324
Sequence (Q13324 20-411): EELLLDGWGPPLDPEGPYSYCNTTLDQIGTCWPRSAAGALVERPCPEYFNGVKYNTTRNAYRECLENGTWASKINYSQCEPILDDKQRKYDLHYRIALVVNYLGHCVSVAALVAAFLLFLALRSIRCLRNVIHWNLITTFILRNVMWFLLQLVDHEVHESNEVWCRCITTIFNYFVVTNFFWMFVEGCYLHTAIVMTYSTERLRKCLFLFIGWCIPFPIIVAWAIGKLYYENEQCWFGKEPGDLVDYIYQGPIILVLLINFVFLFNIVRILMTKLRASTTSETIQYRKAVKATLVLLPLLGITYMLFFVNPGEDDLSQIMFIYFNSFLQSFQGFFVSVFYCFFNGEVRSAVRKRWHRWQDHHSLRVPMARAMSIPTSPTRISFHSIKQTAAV
Assay: cell-based or functional assay

Binder | EC50 [nM], 0% HSA [nM] | EC50 [nM], 0.1% HSA [nM]
B1 | 0.57 | 24.5
B2 | 48.5 | 
